This note sets out measurements from patent publication US20230220093A1 (published 2023).

Test [1] deals with T1, recombinant human CD40L (rhCD40L-his) (human, UniProt P29965 113-261, limits assumed).
T1 construct: The construct is purified by IMAC and named rhCD40L-his; also called rhCD40L antigen; soluble CD40L
T1 sequence (looked up): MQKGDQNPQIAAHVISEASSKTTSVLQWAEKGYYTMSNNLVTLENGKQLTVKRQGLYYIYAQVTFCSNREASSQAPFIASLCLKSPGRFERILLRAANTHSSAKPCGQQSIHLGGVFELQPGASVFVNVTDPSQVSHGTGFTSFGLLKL
Description: ELISA, CD40L coated, anti-human Fd-HRP.
Description: HRP-conjugated goat anti-human Fd antibodies were used as secondary antibodies.

The target in test [2] is T1, recombinant human CD40L (rhCD40L-his). As to the kind of experiment: BLI (Octet RED), CD40L immobilised on AR2G biosensor.
Description: (§1) The purified antibodies were continuously treated in a 1× kinetic buffer at pH 7.4 for two-fold dilution.
The target in test [3] is T2, recombinant human TNF-α protein (BioLegend) (human, UniProt P01375 77-233). As to the kind of experiment: cell-based or functional assay.
T2 sequence (P01375 77-233 limits assumed): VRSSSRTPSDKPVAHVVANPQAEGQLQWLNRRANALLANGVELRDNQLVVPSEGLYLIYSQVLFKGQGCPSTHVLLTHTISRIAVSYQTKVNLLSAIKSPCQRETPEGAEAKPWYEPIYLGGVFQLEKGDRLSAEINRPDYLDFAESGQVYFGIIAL
Test [4] addresses T2, recombinant human TNF-α protein …. Description: BLI (Octet RED), TNF-α immobilised on AR2G biosensor.
Description: as §1
Test [5] has as its target T3, human serum albumin (HSA) (Sigma-Aldrich) (human, UniProt P02768 25-609). Description: BLI (Octet RED), HSA immobilised on AR2G biosensor.
Description: as §1
Test [6] has as its target T3, human serum albumin (HSA) …. Description: BLI (Octet RED), average of two runs.
Description: (§2) The binding and dissociation kinetics were obtained using Octet QK software. Binding rate constants were calculated such that the observed binding curves are fitted to a 1:1 binding model.
Test [7] has the same target. As to the kind of experiment: BLI (Octet RED), HSA immobilised on AR2G biosensor, first run.
Description: as §2
Test [8] has the same target. Description: BLI (Octet RED).
Description: as §2
Test [9] shares this target. Description: BLI (Octet RED), second run.
Description: as §2
In test [10] the target is T4, cellular membrane CD40L expressed on D1.1 cells (CRL-10915) (UniProt P29965 1-261, limits assumed).
T4 construct: whole, on cells; also called mCD40L; cell membrane CD40L
T4 sequence (looked up): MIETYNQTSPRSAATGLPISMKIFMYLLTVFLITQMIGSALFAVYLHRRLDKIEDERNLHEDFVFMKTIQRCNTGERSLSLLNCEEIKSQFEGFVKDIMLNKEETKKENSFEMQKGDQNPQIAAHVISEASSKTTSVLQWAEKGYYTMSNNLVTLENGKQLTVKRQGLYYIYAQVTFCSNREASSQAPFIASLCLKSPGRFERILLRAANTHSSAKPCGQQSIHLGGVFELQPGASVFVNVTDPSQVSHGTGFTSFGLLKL
Description: flow cytometry on D1.1 cells, anti-human kappa-FITC.

B1: APB-B1a, (anti-CD40L scFv)2-(anti-HSA Fab)-(anti-TNF-α Fv) (bispecific antibody)
heavy: DIVLTQSPATLSVSPGERATISCRASQRVSSSTYSYMHWYQQKPGQPPKLLIKYASNLESGVPARFSGSGSGTDFTLTISSVEPEDFATYYCQHSWEIPPTFGQGTKLEIKRGGGGSGGGGSGGGGSQVQLVQSGAEVVKPGASVKLSCKASGYIFTSYYMYWVKQAPGQGLEWIGEINPSNGDTNFNEKFKSKATLTVDKSASTAYMELSSLRSEDTAVYYCTRSDGRNDMDSWGQGTLVTVSSGGGGSGGGGSGGGGSQVQLVQSGGGPVKPGGSLRLSCAASGFMFRAYSMNWVRQAPGKGLEWVSSISSSGRYIHYADSVKGRFTISRDNAKNSLYLQMNSLRAEDTAVYYCARETVMAGKALDYWGQGTLVTVSSASTKGPSVFPLAPSSKSTSEGTAALGCLVKDYFPEPVTVSWNSGALTSGVHTFPAVLQSSGLYSLSSVVTVPSSSLGTQTYICNVNHKPSNTKVDKKVEPKSSGGGGSGGGGSGGGGSEVQLVESGGGLVQPGGSLRLSCAASGYVFTDYGMNWVRQAPGKGLEWMGWINTYIGEPIYADSVKGRFTFSLDTSKSTAYLQMNSLRAEDTAVYYCARGYRSYAMDYWGQGTLVTVSS
light: DIVLTQSPATLSVSPGERATISCRASQRVSSSTYSYMHWYQQKPGQPPKLLIKYASNLESGVPARFSGSGSGTDFTLTISSVEPEDFATYYCQHSWEIPPTFGQGTKLEIKRGGGGSGGGGSGGGGSQVQLVQSGAEVVKPGASVKLSCKASGYIFTSYYMYWVKQAPGQGLEWIGEINPSNGDTNFNEKFKSKATLTVDKSASTAYMELSSLRSEDTAVYYCTRSDGRNDMDSWGQGTLVTVSSGSTSGSGKPGSGEGSTKGDIVLTQSPGTLSLSPGETATLSCRASQSVGSNLAWYQQKPGQAPRLLIYGASTGATGVPARFSGSRSGTDFTLTITSLQPEDFATYYCQQYYSFLAKTFGQGTQLEIKRTVAAPSVFIFPPSDEQLKSGTASVVCLLNNFYPREAKVQWKVDNALQSGNSQESVTEQDSKDSTYSLSNTLTLSKADYEKHKVYACEVTHQGLSSPVTKSFNRGESGGGGSGGGGSGGGGSDIQMTQSPSSLSASVGDRVTITCKASQNVGTNVAWYQQKPGKAPKALIYSASFLYSGVPYRFSGSGSGTDFTLTISSLQPEDFATYYCQQYNIYPLTFGQGTKVEIKR
notes: also called APB-1a; (scFv)2-Fab-Fv (certolizumab)
Take B1: the “fold lower binding capacity against anti-human CD40L IgG1 (ruplizumab)” value in test [1] is ~1.5 fold. Further, in test [2], the Kd was determined as 0.192 nM, the koff came to 0.000113 s⁻¹ and the kon turned out to be 590000 M⁻¹ s⁻¹. In [3], the “IC50, HEK-Blue reporter (SEAP), soluble TNF-α 10 ng/ml (FIG. 22B)” value came out at 3.05 nM and the “IC50, inhibition of TNF-α mediated cytotoxicity, L929 mouse cells, HSA present (CCK-8)” value came out at 5.3 nM. In test [4], the Kd worked out at 0.164 nM, the koff came out at 3.82e-05 s⁻¹ and the kon stood at 230000 M⁻¹ s⁻¹. Besides, in test [5], binding was characterised by a dissociation constant (Kd) of 0.765 nM, the koff amounted to 0.00042 s⁻¹ and the kon was 549000 M⁻¹ s⁻¹.

B2: APB-A1, recombinant antibody (anti-CD40L scFv)2-anti-HSA Fab (bispecific antibody)
heavy: DIVLTQSPATLSVSPGERATISCRASQRVSSSTYSYMHWYQQKPGQPPKLLIKYASNLESGVPARFSGSGSGTDFTLTISSVEPEDFATYYCQHSWEIPPTFGGGTKLEIKRGGGGSGGGGSGGGGSQVQLVQSGAEVVKPGASVKLSCKASGYIFTSYYMYWVKQAPGQGLEWIGEINPSNGDTNFNEKFKSKATLTVDKSASTAYMELSSLRSEDTAVYYCTRSDGRNDMDSWGQGTLVTVSSGGGGSGGGGSGGGGSQVQLVQSGGGPVKPGGSLRLSCAASGFMFRAYSMNWVRQAPGKGLEWVSSISSSGRYIHYADSVKGRFTISRDNAKNSLYLQMNSLRAEDTAVYYCARETVMAGKALDYWGQGTLVTVSSASTKGPSVFPLAPSSKSTSEGTAALGCLVKDYFPEPVTVSWNSGALTSGVHTFPAVLQSSGLYSLSSVVTVPSSSLGTQTYICNVNHKPSNTKVDKKVEPKSS
light: DIVLTQSPATLSVSPGERATISCRASQRVSSSTYSYMHWYQQKPGQPPKLLIKYASNLESGVPARFSGSGSGTDFTLTISSVEPEDFATYYCQHSWEIPPTFGGGTKLEIKRGGGGSGGGGSGGGGSQVQLVQSGAEVVKPGASVKLSCKASGYIFTSYYMYWVKQAPGQGLEWIGEINPSNGDTNFNEKFKSKATLTVDKSASTAYMELSSLRSEDTAVYYCTRSDGRNDMDSWGQGTLVTVSSGSTSGSGKPGSGEGSTKGDIVLTQSPGTLSLSPGETATLSCRASQSVGSNLAWYQQKPGQAPRLLIYGASTGATGVPARFSGSRSGTDFTLTITSLQPEDFATYYCQQYYSFLAKTFGQGTQLEIKRTVAAPSVFIFPPSDEQLKSGTASVVCLLNNFYPREAKVQWKVDNALQSGNSQESVTEQDSKDSTYSLSNTLTLSKADYEKHKVYACEVTHQGLSSPVTKSFNRGES
notes: also called (anti-hu5c8 scFv)2-SL335; (scFv)2-Fab
Regarding B2, in test [6], the Kd was determined as 0.688 nM, the koff was 0.00056 s⁻¹ and the kon turned out to be 804000 M⁻¹ s⁻¹. In [7], this molecule returned a Kd of 0.748 nM. Also, the “fold of KD against SL335-HSA KD” value in [8] was ~2.6 fold. In test [9], this molecule had a Kd of 0.628 nM.

B3: SL335 Fab (anti-HSA Fab) (Fab, V domains shown)
VH: QVQLVQSGGGPVKPGGSLRLSCAASGFMFRAYSMNWVRQAPGKGLEWVSSISSSGRYIHYADSVKGRFTISRDNAKNSLYLQMNSLRAEDTAVYYCARETVMAGKALDYWGQGTLVTVSS
VL: DIVLTQSPGTLSLSPGETATLSCRASQSVGSNLAWYQQKPGQAPRLLIYGASTGATGVPARFSGSRSGTDFTLTITSLQPEDFATYYCQQYYSFLAKTFGQGTQLEIKR
notes: also called anti-HSA Fab (SL335)
Turning to B3, in test [10], the binding result is recorded as “no binding”. Moreover, in test [5], the Kd was determined as 0.286 nM, the koff stood at 0.000288 s⁻¹ and the on-rate (kon) came to 1.01e+06 M⁻¹ s⁻¹.
